Results as given in paper PMC2659343.
Where two headings read alike, the source gives them in different places.

What was measured:
[1] = target: T1, MCR1 from 293T (co-expressed with GST-core RAG2);GST-core RAG2 (mouse?;mouse?, UniProt P15919;P21784 384-1008;1-387, |); assay: EMSA
T1 sequence 1: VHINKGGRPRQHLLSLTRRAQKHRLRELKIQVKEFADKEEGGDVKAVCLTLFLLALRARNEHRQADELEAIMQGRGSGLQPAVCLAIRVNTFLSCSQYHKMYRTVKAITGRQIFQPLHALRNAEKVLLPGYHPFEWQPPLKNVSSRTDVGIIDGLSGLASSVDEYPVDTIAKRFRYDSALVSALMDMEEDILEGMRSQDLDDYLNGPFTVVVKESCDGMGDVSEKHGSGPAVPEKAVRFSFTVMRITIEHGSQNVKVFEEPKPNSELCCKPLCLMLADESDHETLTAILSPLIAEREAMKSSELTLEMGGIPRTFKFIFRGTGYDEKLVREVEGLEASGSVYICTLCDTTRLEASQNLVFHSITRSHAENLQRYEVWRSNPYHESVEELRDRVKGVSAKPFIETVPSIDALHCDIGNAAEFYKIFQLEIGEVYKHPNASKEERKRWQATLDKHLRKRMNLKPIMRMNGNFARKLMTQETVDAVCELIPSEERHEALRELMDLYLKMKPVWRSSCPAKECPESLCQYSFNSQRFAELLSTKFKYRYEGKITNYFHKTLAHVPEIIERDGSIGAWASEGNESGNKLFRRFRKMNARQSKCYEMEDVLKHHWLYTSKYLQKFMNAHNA
T1 sequence 2: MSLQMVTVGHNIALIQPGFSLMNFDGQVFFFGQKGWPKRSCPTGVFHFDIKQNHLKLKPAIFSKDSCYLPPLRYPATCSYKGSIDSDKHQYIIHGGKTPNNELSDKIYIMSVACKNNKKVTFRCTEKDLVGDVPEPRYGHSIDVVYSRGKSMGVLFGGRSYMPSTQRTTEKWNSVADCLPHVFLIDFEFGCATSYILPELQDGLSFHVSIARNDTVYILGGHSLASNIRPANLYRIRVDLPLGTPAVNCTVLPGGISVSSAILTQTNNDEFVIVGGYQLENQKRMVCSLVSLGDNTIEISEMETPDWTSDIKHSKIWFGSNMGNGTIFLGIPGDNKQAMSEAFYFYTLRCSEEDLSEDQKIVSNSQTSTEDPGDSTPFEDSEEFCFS

[2] = target: T1, MCR1 from 293T (co-expressed with …); assay: EMSA; remark: listed apart in the source
[3] = target: T2, MCR1 (MBP-core RAG1);GST-core RAG2 (mouse?;mouse?, UniProt P15919;P21784 384-1008;1-387, |); assay: EMSA
T2 sequence 1: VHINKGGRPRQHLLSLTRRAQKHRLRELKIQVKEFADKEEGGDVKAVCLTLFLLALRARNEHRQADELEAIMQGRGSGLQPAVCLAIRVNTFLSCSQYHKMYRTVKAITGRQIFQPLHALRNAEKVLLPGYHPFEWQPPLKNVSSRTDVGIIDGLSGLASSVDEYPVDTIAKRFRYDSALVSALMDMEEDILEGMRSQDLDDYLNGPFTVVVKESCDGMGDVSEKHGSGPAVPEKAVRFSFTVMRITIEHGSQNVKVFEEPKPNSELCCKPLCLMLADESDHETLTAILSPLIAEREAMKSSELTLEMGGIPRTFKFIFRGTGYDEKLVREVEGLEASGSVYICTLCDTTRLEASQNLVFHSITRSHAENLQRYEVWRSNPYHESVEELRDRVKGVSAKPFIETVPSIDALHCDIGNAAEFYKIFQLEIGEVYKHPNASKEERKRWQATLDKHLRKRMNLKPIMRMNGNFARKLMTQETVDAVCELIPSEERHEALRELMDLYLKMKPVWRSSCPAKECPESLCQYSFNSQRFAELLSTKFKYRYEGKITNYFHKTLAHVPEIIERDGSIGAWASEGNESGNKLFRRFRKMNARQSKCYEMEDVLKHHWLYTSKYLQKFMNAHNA
T2 sequence 2: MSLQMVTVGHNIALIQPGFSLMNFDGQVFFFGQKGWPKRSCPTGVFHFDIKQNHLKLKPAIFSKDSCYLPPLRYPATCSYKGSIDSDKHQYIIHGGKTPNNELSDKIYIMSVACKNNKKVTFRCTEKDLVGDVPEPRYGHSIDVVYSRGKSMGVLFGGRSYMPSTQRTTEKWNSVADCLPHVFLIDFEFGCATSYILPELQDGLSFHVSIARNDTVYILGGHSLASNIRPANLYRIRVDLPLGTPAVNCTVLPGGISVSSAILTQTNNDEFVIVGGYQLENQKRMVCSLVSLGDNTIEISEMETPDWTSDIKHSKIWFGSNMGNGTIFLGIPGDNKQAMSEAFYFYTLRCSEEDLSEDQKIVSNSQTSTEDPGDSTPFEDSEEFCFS

MCR1 (MBP-core RAG1) [4] = target: T3, MCR1 (MBP-core RAG1) (UniProt P15919 384-1008); assay: EMSA
T3 sequence: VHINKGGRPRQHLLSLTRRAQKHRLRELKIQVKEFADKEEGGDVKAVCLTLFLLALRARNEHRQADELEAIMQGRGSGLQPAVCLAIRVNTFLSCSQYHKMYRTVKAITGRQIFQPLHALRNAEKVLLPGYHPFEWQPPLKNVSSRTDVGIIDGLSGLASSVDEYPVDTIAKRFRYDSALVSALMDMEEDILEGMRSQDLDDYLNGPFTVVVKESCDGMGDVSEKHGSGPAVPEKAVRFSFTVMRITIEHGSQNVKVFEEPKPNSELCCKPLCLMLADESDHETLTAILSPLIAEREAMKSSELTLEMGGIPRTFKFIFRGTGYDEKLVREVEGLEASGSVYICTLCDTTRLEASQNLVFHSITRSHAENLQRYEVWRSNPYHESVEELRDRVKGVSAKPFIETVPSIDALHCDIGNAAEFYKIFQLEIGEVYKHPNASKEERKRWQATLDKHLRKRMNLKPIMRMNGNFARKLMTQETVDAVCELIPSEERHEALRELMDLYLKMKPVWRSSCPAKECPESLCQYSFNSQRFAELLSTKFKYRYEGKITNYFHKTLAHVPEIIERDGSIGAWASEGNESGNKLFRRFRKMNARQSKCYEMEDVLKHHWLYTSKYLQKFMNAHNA

MCR1 (MBP-core RAG1) [5] = target: T3, MCR1 (MBP-core RAG1); assay: fluorescence anisotropy
MCR1 (MBP-core RAG1) [6] = target: T3, MCR1 (MBP-core RAG1); assay: fluorescence anisotropy; remark: listed apart in the source
MCR1 (MBP-core RAG1) [7] = target: T3, MCR1 (MBP-core RAG1); assay: competition
[8] = target: T2, MCR1 (MBP-core RAG1);GST-core RAG2; assay: EMSA; remark: listed apart in the source
[9] = target: T1, MCR1 from 293T (co-expressed with …); assay: EMSA; remark: listed apart in the source
MCR1 (MBP-core RAG1) [10] = target: T3, MCR1 (MBP-core RAG1); assay: EMSA; remark: listed apart in the source
MCR1 (MBP-core RAG1) [11] = target: T3, MCR1 (MBP-core RAG1); assay: fluorescence anisotropy; remark: listed apart in the source

B1: WT 12-RSS (dsDNA)
DNA 1: GATATGGCTCGTCTTACACAGTGATATAGACCTTAACAAAAACCTCCAATCGAGCGGAG
DNA 2: CTCCGCTCGATTGGAGGTTTTTGTTAAGGTCTATATCACTGTGTAAGACGAGCCATATC
- Kd [1]: 32 ± 5 nM
- Kd [2]: 25 ± 5 nM
- Kd [3]: 87 ± 10 nM
- Kd (MCR1 (MBP-core RAG1) [4]): 114 ± 5 nM

B2: Oregon Green WT 12-RSS (dsDNA)
DNA 1: GATATGGCTCGTCTTACACAGTGATATAGACCTTAACAAAAACCTCCAATCGAGCGGAG
DNA 2: CTCCGCTCGATTGGAGGTTTTTGTTAAGGTCTATATCACTGTGTAAGACGAGCCATATC
- Kd (MCR1 (MBP-core RAG1) [5]): 27 ± 9 nM
- Kd (MCR1 (MBP-core RAG1) [6]): 123 nM

B3: unlabeled WT 12-RSS competitor (dsDNA)
DNA 1: GATATGGCTCGTCTTACACAGTGATATAGACCTTAACAAAAACCTCCAATCGAGCGGAG
DNA 2: CTCCGCTCGATTGGAGGTTTTTGTTAAGGTCTATATCACTGTGTAAGACGAGCCATATC
- IC50 (MCR1 (MBP-core RAG1) [7]): 150 nM

B4: MHMN (mutant heptamer, mutant nonamer) (dsDNA)
DNA 1: GATATGGCTCGTCTTAGAGAAGCATATAGACCTTAAGGCTCTGATCCAATCGAGCGGAG
DNA 2: CTCCGCTCGATTGGATCAGAGCCTTAAGGTCTATATGCTTCTCTAAGACGAGCCATATC
- binding result [8]: no binding
- binding result [9]: no binding
- Kd (MCR1 (MBP-core RAG1) [10]): 123 ± 7 nM

B5: Oregon Green MHMN (dsDNA)
DNA 1: GATATGGCTCGTCTTAGAGAAGCATATAGACCTTAAGGCTCTGATCCAATCGAGCGGAG
DNA 2: CTCCGCTCGATTGGATCAGAGCCTTAAGGTCTATATGCTTCTCTAAGACGAGCCATATC
- Kd (MCR1 (MBP-core RAG1) [11]): 28 ± 8 nM
